Experimental findings from patent US20130158238A1 (THERACLONE SCIENCES, published 2013) are described below.

Several values for one entry are separate records, joined by “and”; a condition that tells them apart may be missing. Equal values may be shown once.

The target in assay [1] is M2 protein on influenza A/Puerto Rico/8/34 (H1N1) virus particles (Influenza A virus A/Puerto Rico/8/34 …, UniProt P06821 1-97).
Assay [2] has as its target CM12. The experiment in a line: ELISA, peptide 2 µg/mL, mAb 5 µg/mL. (In general: In an ELISA, binding on a coated surface is turned into a signal by an enzyme label.)
Assay [3] addresses CM13. The experiment in a line: ELISA, peptide 2 µg/mL, mAb 5 µg/mL.
The target of assay [4] is CM14. The experiment in a line: ELISA, peptide 2 µg/mL, mAb 5 µg/mL.
Assay [5] deals with CM15. The experiment in a line: ELISA, peptide 2 µg/mL, mAb 5 µg/mL.
Assay [6] concerns the target CM16. The experiment in a line: ELISA, peptide 2 µg/mL, mAb 5 µg/mL.
The target in assay [7] is CM17. The experiment in a line: ELISA, peptide 2 µg/mL, mAb 5 µg/mL.
The target of assay [8] is M12. The experiment in a line: ELISA, peptide 2 µg/mL, mAb 5 µg/mL.
Assay [9] deals with NM12. The experiment in a line: ELISA, peptide 2 µg/mL, mAb 5 µg/mL.
Assay [10] concerns the target NM13. The experiment in a line: ELISA, peptide 2 µg/mL, mAb 5 µg/mL.
Assay [11] has as its target NM14. The experiment in a line: ELISA, peptide 2 µg/mL, mAb 5 µg/mL.
The target in assay [12] is NM7. The experiment in a line: ELISA, peptide 2 µg/mL, mAb 5 µg/mL.
Assay [13] addresses NM8. The experiment in a line: ELISA, peptide 2 µg/mL, mAb 5 µg/mL.
The target of assay [14] is M15. The experiment in a line: ELISA, peptide 2 µg/mL, mAb 5 µg/mL.
For assay [15], the target named is M16. The experiment in a line: ELISA, peptide 2 µg/mL, mAb 5 µg/mL.
The target of assay [16] is M2e peptide … (23mer synthetic peptide of M2 derived from A/Fort Worth/1/50) (Influenza A virus A/Fort Worth/1/50 (H1N1)). The experiment in a line: ELISA, peptide 2 µg/mL, mAb 5 µg/mL.
Assay [17] has as its target NM15. The experiment in a line: ELISA, peptide 2 µg/mL, mAb 5 µg/mL.
Assay [18] concerns the target NM17. The experiment in a line: ELISA, peptide 2 µg/mL, mAb 5 µg/mL.
The target of assay [19] is M2 protein of A/Hong Kong/483/1997, on cells (Influenza A virus A/Hong Kong/483/97 (H5N1)). The experiment in a line: FACS, supernatant on CHO cells stably expressing M2 of A/Hong Kong/483/97. (In general: In flow cytometry, cells or beads pass a laser one at a time.)

B1: 23K12 (antibody, V domains shown)
VH: EVQLVESGGGLVQPGGSLRISCAASGFTVSSNYMSWVRQAPGKGLEWVSVIYSGGSTYYADSVKGRFSFSRDNSKNTVFLQMNSLRAEDTAVYYCARCLSRMRGYGLDVWGQGTTVTVS
VL: DIQMTQSPSSLSASVGDRVTITCRTSQSISSYLNWYQQKPGKAPKLLIYAASSLQSGVPSRFSGSGSGTDFTLTISGLQPEDFATYYCQQSYSMPAFGQGTKLEIK
B1: in assay [1], the “EC50 (read off the curve)” value is approximately 0.06 µg/mL. For the same molecule, the binding activity (ELISA A450) in assay [2] was determined as 0.39; in assay [3], 0.34; in [4] it was 0.36; in assay [5], 0.34; in assay [6], 0.35; in assay [7], 0.34. For the same molecule, the binding activity (ELISA A450) in assay [8] stood at 0.2; in [9], 0.24; in assay [10] it was 0.25; in assay [11], 0.24; in [12], 0.2; in [13], 0.2.

B2: 8i10 (antibody, V domains shown)
VH: QVQLQESGPGLVKPSETLSLTCTVSGSSISNYYWSWIRQSPGKGLEWIGFIYYGGNTKYNPSLKSRVTISQDTSKSQVSLTMSSVTAAESAVYFCARASCSGGYCILDYWGQGTLVTVS
VL: DIQMTQSPSSLSASVGDRVTITCRASQNIYKYLNWYQQRPGKAPKGLISAASGLQSGVPSRFSGSGSGTDFTLTITSLQPEDFATYYCQQSYSPPLTFGGGTRVEIK
For the molecule B2, the “EC50 (read off the curve)” value in assay [1] was approximately 0.04 µg/mL. Moreover, the binding activity (ELISA A450) in assay [2] is 0.14; in assay [3], 0.14; in [4] it was 0.14; in assay [5] it was 0.12; in assay [6] it was 0.13; in assay [7] it was 0.11. Also, the binding activity (ELISA A450) in assay [8] was found to be 0.09; in assay [14], 0.09; in assay [15], 0.09; in [16], 0.11; in [9], 0.1; in assay [10], 0.11. Moreover, the binding activity (ELISA A450) in assay [11] was 0.11; in assay [17], 0.12; in [18], 0.26; in assay [12], 0.1; in assay [13], 0.1. The FACS M2-HK MFI in [19] was 754 MFI and 1080 MFI.

For orientation: EC50 (read off the curve) means the concentration that produces a half-maximal response. A high value points to a less potent agent.
